Values quoted from earlier work in patent US20250388691A1, “METHODS FOR TREATING LYMPHOMA” (Xencor, Inc., priority 2022, published 2025).

Legend:
R/R DLBCL = settings: ongoing Phase 1 study XmAb13676-01, NCT02924402
[1] = plamotamab, Investigator's Brochure, 2021

plamotamab: humanized bsAb that binds both CD3 and the tumor antigen CD20; Fab-scFv-Fc format
TLS, R/R NHL subjects (Phase 1 monotherapy, 2 of the 80 R/R NHL subjects): 2.5%
any-grade TLS, subjects (Phase 1 monotherapy, CD20-expressing hematologic malignancies, 4 of 96 subjects): 4.2%
CRS (XmAb13676-01 study, especially with the Cycle 1 Day 1 dose): frequently observed
serious or fatal events of TLS (plamotamab monotherapy in R/R DLBCL): no serious or fatal events of TLS
Adverse events of neutropenia (all grades) [1]: 20.8%
Adverse events of thrombocytopenia (all grades) [1]: 24.0%
responses in subjects with R/R DLBCL (R/R DLBCL): durable responses
